{
  "source": "paper PMC3811445",
  "target": "E. coli EF-G (Δ529SNP531) (E. coli) (UniProt P0A6M8)",
  "test": "ITC; performed as described previously (ref 11); conditions not given here",
  "data": [
    {"substance": "FusB (natural protein)", "values": [
      {"measurement": "Kd", "result": 5.8, "unit": "µM"}
    ]}
  ]
}
